Test results reported in patent publication US20260242458A1 (NOVAROCK BIOTHERAPEUTICS, published 2026).
Where two headings read alike, the source gives them in different places. Blank lines part the entries; values can stand above or below the binder they belong to.

Legend:
[1] = molecular target: T1, recombinant cynomolgus IL-25 protein (cynomolgus monkey, UniProt Q9H293 33-177 (human entry), limits assumed); test: ELISA: recombinant cynomolgus IL-25 coated on the plate, detection with goat-anti-human Kappa Light Chain antibody HRP, ABTS, OD 405
T1 construct: Bought (Sino Biological Inc, customized order); also called cyno IL-25
T1 chain: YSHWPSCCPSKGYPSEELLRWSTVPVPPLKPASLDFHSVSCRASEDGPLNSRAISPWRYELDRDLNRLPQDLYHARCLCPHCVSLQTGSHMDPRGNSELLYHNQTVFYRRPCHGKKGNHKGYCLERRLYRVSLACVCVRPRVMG
Protocol: In another study, the ability of five disclosed anti-IL-25 antibodies (IL25Ab1 to Ab5) binding to cynomolgus IL-25 was evaluated using ELISA. Briefly, recombinant human IL-25 protein (Acro, catalog no: IL5-H4221, lot no: 401-20CNF1-UT) or recombinant cynomolgus IL-25 protein (Sino Biological Inc, catalog no: customized order, lot no: MB17MA2715) was directly coated to ELISA plates, respectively. Recombinant antibodies were then added to the plates followed by detection using goat-anti-human Kappa Light Chain antibody HRP (Novus, catalog no: NBP1-75064, Lot no: 68-188-010920). After the addition of ABTS (Moss Inc., catalog no: ABTS-1000, Lot no: 03086202) substrate, ELISA plates were read using an ELISA plate reader (Bioteck).

[2] = molecular target: T2, recombinant human IL-25 protein (human, UniProt Q9H293 33-177); test: cell-based or functional assay
T2 sequence: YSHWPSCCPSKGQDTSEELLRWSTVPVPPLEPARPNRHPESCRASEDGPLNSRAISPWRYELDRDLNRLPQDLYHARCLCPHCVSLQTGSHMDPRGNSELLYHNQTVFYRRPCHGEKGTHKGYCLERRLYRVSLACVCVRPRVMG

[3] = molecular target: T2, recombinant human IL-25 protein; test: ELISA, IL-25 coated, goat anti-human IgG-HRP detection
Protocol: (§1) In this study, the ability of five disclosed anti-IL-25 antibodies (IL25Ab1 to Ab5) binding to both human and mouse IL-25 was evaluated using ELISA. Briefly, recombinant human IL-25 protein (Acro, catalog no: IL5-H4221, lot no: 401-20CNF1-UT) or recombinant mouse IL-25 protein (Sino Biological Inc, catalog no: 50138-M07H, lot no: LC15AP0607) was directly coated to ELISA plates, respectively. Recombinant antibodies were then added to the plates followed by detection using goat-anti-human IgG-HRP (Jackson ImmunoResearch, catalog no: 109-035-098, Lot no: 157400). After the addition of ABTS (Moss Inc., catalog no: ABTS-1000, Lot no: 03086202) substrate, ELISA plates were read using an ELISA plate reader (Bioteck).

[4] = molecular target: T3, recombinant mouse IL-25 protein (mouse, UniProt Q8VHH8 17-169); test: as above
T3 construct: Bought (Sino Biological Inc, catalog no: 50138-M07H)
T3 sequence: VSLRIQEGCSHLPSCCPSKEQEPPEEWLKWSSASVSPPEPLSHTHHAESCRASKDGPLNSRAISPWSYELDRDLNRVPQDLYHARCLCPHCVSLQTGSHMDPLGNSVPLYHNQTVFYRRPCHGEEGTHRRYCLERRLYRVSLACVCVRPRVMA
Protocol: as §1

[5] = molecular target: T2, recombinant human IL-25 protein; test: cell-based or functional assay; remark: listed apart in the source
[6] = molecular target: T2, recombinant human IL-25 protein; test: BLI (Octet), antibody captured on anti-human Fc biosensor, human IL-25 as analyte
Protocol: The binding kinetics of the disclosed anti-IL-25 antibodies to recombinant human IL-25 was determined by Octet® Bio-Layer Interferometry (BLI) systems by Sartorius. The assay uses anti-IL-25 monoclonal antibodies as the ligand and recombinant human IL-25 protein as the analyte.
Briefly, the assays were performed by first capturing 5 μg/ml of anti-IL-25 antibodies using anti-human Fc Octet biosensors. The mAb-captured biosensors were then submerged in wells containing serially diluted human IL-25 for 4-6 minutes, followed by a 10-15 minute dissociation time. The binding sensorgrams were collected and analyzed by the Octet Data Analysis software.

[7] = molecular target: T2, recombinant human IL-25 protein; test: cell-based or functional assay; remark: listed apart in the source
[8] = molecular target: T2, recombinant human IL-25 protein; test: cell-based or functional assay; remark: listed apart in the source
[9] = molecular target: T2, recombinant human IL-25 protein; test: ELISA, IL-25 coated, goat anti-human kappa light chain-HRP detection
Protocol: (§2) In this study, the ability of three humanized anti-IL-25 antibodies generated in hIgG1 (IL25Ab6 to Ab8) and hIgG1 YTE formats (IL25Ab9 to Ab11) binding to both human, mouse and cynomolgus IL-25 was evaluated using ELISA. Briefly, recombinant human IL-25 protein (Acro, catalog no: IL5-H4221, lot no: 401-20CNF1-UT), recombinant mouse IL-25 protein (Sino Biological Inc, catalog no: 50138-M07H, lot no: LC15AP0607) or recombinant cynomolgus IL-25 protein (Sino Biological Inc, catalog no: customized order, lot no: MB17MA2715) was directly coated to ELISA plates, respectively. Recombinant antibodies were then added to the plates followed by detection using goat-anti-human Kappa Light Chain antibody HRP (Novus, catalog no: NBP1-75064, Lot no: 68-188-010920). After the addition of ABTS (Moss Inc., catalog no: ABTS-1000, Lot no: 03086202) substrate, ELISA plates were read using an ELISA plate reader (Bioteck).

[10] = molecular target: T3, recombinant mouse IL-25 protein; test: as above
Protocol: as §2

[11] = molecular target: T1, recombinant cynomolgus IL-25 protein; test: as above
Protocol: as §2

[12] = molecular target: T2, recombinant human IL-25 protein; test: cell-based or functional assay; remark: listed apart in the source
[13] = molecular target: T2, recombinant human IL-25 protein; test: cell-based or functional assay; remark: listed apart in the source

- EC50 (read off the curve) [1]: ~0.2 nM
- IC50, IL-25 induced IL-5 production in human PBMC [2]: 0.26 nM
- EC50 [3]: 0.01 nM
- EC50 [4]: 0.035 nM
- IC50, IL-25 induced CXCL1 production in HT-29 cells [5]: 0.077 nM
- Kd [6]: < 0.001 nM
- koff [6]: < 1e-07 s⁻¹
- kon [6]: 2.48e+06 M⁻¹ s⁻¹
- IC50, IL-25 induced NF-kB signaling (SEAP) in HEK-Blue IL-17 reporter cells [7]: 0.061 nM
B1: IL25Ab5 (antibody, V domains shown)
VH: QVQLQQWGAGLLKPSETLSLTCAVYGGSFSAYYWSWIRQSPGKGLEWIGEINHGGNTNYSPSLKSRVTISVDTSKSQFSLKLSSVTAADTAAYYCARGPGITSWAFDFWDQGTMVTVSS
VL: DIQMTQSPSSLSASVGDRVTIACQASQDINNYLNWYQQKPGKAPKLLIYDASNLETGVPSRFSGNGSGTDFTFTISSLQPEDIATFYCQQYDTLPYTFGQGTKLEIR

- EC50 (read off the curve) [1]: ~0.1 nM
- IC50, IL-25 induced IL-5 production in human PBMC [2]: 0.12 nM
- EC50 [3]: 0.02 nM
- EC50 [4]: 0.015 nM
- IC50, IL-25 induced CXCL1 production in HT-29 cells [5]: 0.071 nM
- Kd [6]: < 0.001 nM
- koff [6]: < 1e-07 s⁻¹
- kon [6]: 1.25e+06 M⁻¹ s⁻¹
- IC50, IL-25 induced NF-kB signaling (SEAP) in HEK-Blue IL-17 reporter cells [7]: 0.052 nM
B2: IL25Ab1 (antibody, V domains shown)
VH: QVQLKESGPGLVAPSQSLSITCTVSGFSLTDYGINWVRQPPGKGLEWLGMIWGDGVTHYNSVLKSRLSISKDNSMSQIFLKMNSLQTDDTARYYCARTLFYDGTLYYYAMDYWGQGTSVTVSS
VL: QIVLTQSPATMSASPGEKVTMTCSASSSVTYMYWYQQKTGSSPRLLIYDTPNLASGVPVRFSGSGSGTSYSLTISRVEAEDAATYYCQQWSSYPHTWTFGGGTKLEIK

- EC50 (read off the curve) [1]: ~0.1 nM
- IC50, IL-25 induced IL-5 production in human PBMC [2]: 0.15 nM
- EC50 [3]: 0.034 nM
- EC50 [4]: 0.026 nM
- IC50, IL-25 induced CXCL1 production in HT-29 cells [5]: 0.076 nM
- Kd [6]: < 0.001 nM
- koff [6]: < 1e-07 s⁻¹
- kon [6]: 1.2e+06 M⁻¹ s⁻¹
- IC50, IL-25 induced NF-kB signaling (SEAP) in HEK-Blue IL-17 reporter cells [7]: 0.073 nM
B3: IL25Ab4 (antibody, V domains shown)
VH: QVTLKESGPGILQPSQTLSLTCSFSGFSLSTSGMGVSWIRQPSGKGLEWLAHIYWDDAKFYNPSLKSRVTISKDTSRNQVFLRITSVDTADIATYYCARRGYDNYGGFVDWGQGTLVTVSS
VL: ENVLIQSPAIMSASLGEKVTMSCRASSSVNYMYWYQQKSDAPPKLWIYYTSNLAPGVPGRFSGSGSGNSYSLTISSMEGEDAATYYCQQFTSYPYMYTFGGGTKLEIK

Continued, binder first:

B4: IL25Ab2 (antibody, V domains shown)
VH: QVTLKESGPGILQPSQTLSLTCSFSGFSLSTSGMGVGWIRQPSGKGLEWLAHIWWDDVKQYNPALQSRLTISKDTSSSQVFLKIASVDIADIATYYCARIGPVHHGFPYWGQGALVTVSS
VL: QIVLTQSPAIMSAFPGEKVTMSCSASSSVNYMYWHQQKPGSSPRLLIYDTSNLASGVPVRFSGSGSGTSYSLTISRMEAEDAATYYCQQWTSYPPMYTFGGGTKLEIK
- EC50 (read off the curve) [1]: ~0.1 nM
- IC50, IL-25 induced IL-5 production in human PBMC [2]: 0.14 nM
- EC50 [3]: 0.017 nM
- EC50 [4]: 0.012 nM
- IC50, IL-25 induced CXCL1 production in HT-29 cells [5]: 0.089 nM
- Kd [6]: < 0.001 nM
- koff [6]: < 1e-07 s⁻¹
- kon [6]: 1.36e+06 M⁻¹ s⁻¹
- IC50, IL-25 induced NF-kB signaling (SEAP) in HEK-Blue IL-17 reporter cells [7]: 0.068 nM

B5: IL25Ab3 (antibody, V domains shown)
VH: EVQLQQSGPELVKPGGSVRISCKASGYSFTGYTMNWVKQSHGKNLEWIGLINPDNGGTSHKQRFMGKATLTVDKSSSTAYMELLSLTSEDSAVYYCAREGYYGPSPFHHYAMDYWGQGTSVTVSS
VL: DIQMTQTTSSLSASLGDRVTISCSASQDISNYLNWYQQKPDGTIKLLIYYTSTLHSGVPSRFSGSGSGTDYSLTISNLEPEDIATYYCQQYSKLPYTFGGGTKLEIK
notes: detected with anti-human IgG or anti-human kappa reagents; also called anti-IL-25Ab3; mouse origin of anti-IL-25 specific antibody
- EC50 (read off the curve) [1]: ~0.1 nM
- IC50, IL-25 induced IL-5 production in human PBMC [8]: 0.302 nM
- IC50, IL-25 induced IL-5 production in human PBMC [2]: 0.16 nM
- EC50 [3]: 0.022 nM
- EC50 [4]: 0.013 nM
- EC50 [9]: 0.506 nM
- EC50 [10]: 0.39 nM
- EC50 [11]: 0.364 nM
- IC50, IL-25 induced CXCL1 production in HT-29 cells [12]: 0.144 nM
- IC50, IL-25 induced CXCL1 production in HT-29 cells [5]: 0.067 nM
- Kd [6]: < 0.001 nM
- koff [6]: < 1e-07 s⁻¹
- kon [6]: 875000 M⁻¹ s⁻¹
- IC50, IL-25 induced NF-kB signaling (SEAP) in HEK-Blue IL-17 reporter cells [7]: 0.049 nM
- IC50, IL-25 induced NF-kB signaling (SEAP) in HEK-Blue IL-17 reporter cells [13]: 0.037 nM
